Data set [1] concerns HeLa Kyoto. The experiment in a line: solubility in G1/S (NP-40 vs SDS abundance) (log2 ratio); higher = more soluble. The conditions noted are these: cell cycle stage: G1/S.
Data set [2] has as its system HeLa Kyoto. The experiment in a line: melting temperature (median over replicates), in situ; higher = more thermally stable.
Data set [3] concerns HeLa Kyoto. The experiment in a line: solubility change mitosis vs G1/S (difference of NP-40 vs SDS log2 ratios) (log2 ratio difference); higher = more soluble in mitosis.

The source of these data is the supplement of paper PMC5998384.
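Wherever melting temperature (median over replicates), in situ is given: HeLa Kyoto cells synchronized by double thymidine or nocodazole block, proteins quantified by TMT10plex mass spectrometry, three independent biological replicates.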
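Wherever solubility change mitosis vs G1/S (difference of NP-40 vs SDS log2 ratios) is given: synchronized HeLa Kyoto cells (double thymidine block for G1/S, nocodazole release for mitosis), protein amounts in NP-40 versus SDS lysates quantified by mass spectrometry, three biological replicates.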
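Wherever solubility in G1/S (NP-40 vs SDS abundance) is given: HeLa Kyoto cells arrested at G1/S by double thymidine block, proteins quantified by TMT10plex mass spectrometry in mild NP-40 versus SDS extracts, three biological replicates.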

On to “MAAGKFASLPRNMPVNHQFPLASSMDLLSSRSPLAEHRPDAYQDVSIHGTLPRKKKGPPPIRSCDDFSHMGTLPHSKSPRQNSPVTQDGIQESPWQDRHGETFTFRDPHLLDPTVEYVKFSKERHIMDRTPEKLKKELEEELLLSSEDLRSHAWYHGRIPRQVSENLVQRDGDFLVRDSLSSPGNFVLTCQWKNLAQHFKINRTVLRLSEAYSRVQYQFEMESFDSIPGLVRCYVGNRRPISQQSGAIIFQPINRTVPLRCLEEHYGTSPGQAREGSLTKGRPDVAKRLSLTMGGVQAREQNLPRGNLLRNKEKSGSQPACLDHMQDRRALSLKAHQSESYLPIGCKLPPQSSGVDTSPCPNSPVFRTGSEPALSPAVVRRVSSDARAGEALRGSDSQLCPKPPPKPCKVPFLKVPSSPSAWLNSEANYCELNPAFATGCGRGAKLPSCAQGSHTELLTAKQNEAPGPRNSGVNYLILDDDDRERPWEPAAAQMEKGQWDKGEFVTPLLETVSSFRPNEFESKFLPPENKPLETAMLKRAKELFTNNDPKVIAQHVLSMDCRVARILGVSEEMRRNMGVSSGLELITLPHGHQLRLDIIERHNTMAIGIAVDILGCTGTLEDRAATLSKIIQVAVELKDSMGDLYSFSALMKALEMPQITRLEKTWTALRHQYTQTAILYEKQLKPFSKLLHEGRESTCVPPNNVSVPLLMPLVTLMERQAVTFEGTDMWEKNDQSCEIMLNHLATARFMAEAADSYRMNAERILAGFQPDEEMNEICKTEFQMRLLWGSKGAQVNQTERYEKFNQILTALSRKLEPPPVKQAEL [BCAR3]”, for which, in the data set on HeLa Kyoto [1], the “solubility in G1/S (log2)” value stood at 0.00142. Further, the melting temperature in the data set on HeLa Kyoto [2] (cell cycle stage: G1/S) amounted to 46.3 °C; with HeLa Kyoto [2] (cell cycle stage: mitosis), 50.1 °C. The “solubility change mitosis (log2)” value with HeLa Kyoto [3] turned out to be 0.0356.

“MAAHLSYGRVNLNVLREAVRRELREFLDKCAGSKAIVWDEYLTGPFGLIAQYSLLKEHEVEKMFTLKGNRLPAADVKNIIFFVRPRLELMDIIAENVLSEDRRGPTRDFHILFVPRRSLLCEQRLKDLGVLGSFIHREEYSLDLIPFDGDLLSMESEGAFKECYLEGDQTSLYHAAKGLMTLQALYGTIPQIFGKGECARQVANMMIRMKREFTGSQNSIFPVFDNLLLLDRNVDLLTPLATQLTYEGLIDEIYGIQNSYVKLPPEKFAPKKQGDGGKDLPTEAKKLQLNSAEELYAEIRDKNFNAVGSVLSKKAKIISAAFEERHNAKTVGEIKQFVSQLPHMQAARGSLANHTSIAELIKDVTTSEDFFDKLTVEQEFMSGIDTDKVNNYIEDCIAQKHSLIKVLRLVCLQSVCNSGLKQKVLDYYKREILQTYGYEHILTLHNLEKAGLLKPQTGGRNNYPTIRKTLRLWMDDVNEQNPTDISYVYSGYAPLSVRLAQLLSRPGWRSIEEVLRILPGPHFEERQPLPTGLQKKRQPGENRVTLIFFLGGVTFAEIAALRFLSQLEDGGTEYVIATTKLMNGTSWIEALMEKPF [VPS33A]”: the “solubility in G1/S (log2)” value in the data set on HeLa Kyoto [1] is -0.0025. Also, the melting temperature in the data set on HeLa Kyoto [2] (cell cycle stage: G1/S) amounted to 49.4 °C; in the data set with HeLa Kyoto [2] (cell cycle stage: mitosis), 49.9 °C. In addition, the “solubility change mitosis (log2)” value with HeLa Kyoto [3] is -0.165.

As to “MAAQLLEEKLTCAICLGLYQDPVTLPCGHNFCGACIRDWWDRCGKACPECREPFPDGAELRRNVALSGVLEVVRAGPARDPGPDPGPGPDPAARCPRHGRPLELFCRTEGRCVCSVCTVRECRLHERALLDAERLKREAQLRASLEVTQQQATQAEGQLLELRKQSSQIQNSACILASWVSGKFSSLLQALEIQHTTALRSIEVAKTQALAQARDEEQRLRVHLEAVARHGCRIRELLEQVDEQTFLQESQLLQPPGPLGPLTPLQWDEDQQLGDLKQLLSRLCGLLLEEGSHPGAPAKPVDLAPVEAPGPLAPVPSTVCPLRRKLWQNYRNLTFDPVSANRHFYLSRQDQQVKHCRQSRGPGGPGSFELWQVQCAQSFQAGHHYWEVRASDHSVTLGVSYPQLPRCRLGPHTDNIGRGPCSWGLCVQEDSLQAWHNGEAQRLPGVSGRLLGMDLDLASGCLTFYSLEPQTQPLYTFHALFNQPLTPVFWLLEGRTLTLCHQPGAVFPLGPQEEVLS [TRIM65]”, the “solubility in G1/S (log2)” value in the data set on HeLa Kyoto [1] is -0.0459. Also, the melting temperature in the data set with HeLa Kyoto [2] (cell cycle stage: G1/S) was 49.2 °C; in the data set on HeLa Kyoto [2] (cell cycle stage: mitosis) it was 49.3 °C. In the data set on HeLa Kyoto [3], the “solubility change mitosis (log2)” value was -0.0816.

In the case of “MAARGRRAEPQGREAPGPAGGGGGGSRWAESGSGTSPESGDEEVSGAGSSPVSGGVNLFANDGSFLELFKRKMEEEQRQRQEEPPPGPQRPDQSAAAAGPGDPKRKGGPGSTLSFVGKRRGGNKLALKTGIVAKKQKTEDEVLTSKGDAWAKYMAEVKKYKAHQCGDDDKTRPLVK [C19ORF43]”, the “solubility in G1/S (log2)” value in the data set on HeLa Kyoto [1] came out at 0.0485. The melting temperature with HeLa Kyoto [2] (cell cycle stage: G1/S) was found to be 54.8 °C; in the data set with HeLa Kyoto [2] (cell cycle stage: mitosis), 51.3 °C. Also, in the data set on HeLa Kyoto [3], the “solubility change mitosis (log2)” value worked out at 0.898.

On to “MAASTASHRPIKGILKNKTSTTSSMVASAEQPRGNVDEELSKKSQKWDEMNILATYHPADKDYGLMKIDEPSTPYHSMMGDDEDACSDTEATEAMAPDILARKLAAAEGLEPKYRIQEQESSGEEDSDLSPEEREKKRQFEMKRKLHYNEGLNIKLARQLISKDLHDDDEDEEMLETADGESMNTEESNQGSTPSDQQQNKLRSS [PPP1R2]”, for which the “solubility in G1/S (log2)” value with HeLa Kyoto [1] stood at 0.172. Further, the melting temperature with HeLa Kyoto [2] (cell cycle stage: G1/S) stood at 59.3 °C; in the data set on HeLa Kyoto [2] (cell cycle stage: mitosis), 52.4 °C. In addition, the “solubility change mitosis (log2)” value in the data set with HeLa Kyoto [3] is 0.383.
